Reference: patent US20040014026A1 (YISSUM RESEARCH DEVELOPMENT COMPANY OF THE HEBREW …, published 2004)

B1: Flag-tagged E3RS/βTrCP (Flag-E3RS) (other, UniProt Q9Y297 1-605, looked up, not shown: small tags and cut ends)
chain: MDPAEAVLQEKALKFMCSMPRSLWLGCSSLADSMPSLRCLYNPGTGALTAFQNSSEREDCNNGEPPRKIIPEKNSLRQTYNSCARLCLNQETVCLASTAMKTENCVAKTKLANGTSSMIVPKQRKLSASYEKEKELCVKYFEQWSESDQVEFVEHLISQMCHYQHGHINSYLKPMLQRDFITALPARGLDHIAENILSYLDAKSLCAAELVCKEWYRVTSDGMLWKKLIERMVRTDSLWRGLAERRGWGQYLFKNKPPDGNAPPNSFYRALYPKIIQDIETIESNWRCGRHSLQRIHCRSETSKGVYCLQYDDQKIVSGLRDNTIKIWDKNTLECKRILTGHTGSVLCLQYDERVIITGSSDSTVRVWDVNTGEMLNTLIHHCEAVLHLRFNNGMMVTCSKDRSIAVWDMASPTDITLRRVLVGHRAAVNVVDFDDKYIVSASGDRTIKVWNTSTCEFVRTLNGHKRGIACLQYRDRLVVSGSSDNTIRLWDIECGACLRVLEGHEELVRCIRFDNKRIVSGAYDGKIKVWDLVAALDPRAPAGTLCLRTLVEHSGRVFRLQFDEFQIVSSSHDDTILIWDFLNDPAAQAEPPRSPSRTYTYISR
notes: F-box protein, receptor subunit of the IκB-E3; Immunopurified material may carry endogenous Skp1/Cul1; also called β-TrCP/E3RS; WT E3RS
B2: WDK2 (Flag-WD with Lys 326 mutated to Ala) (other, UniProt Q9Y297 229-605, looked up, not shown: small tags and cut ends)
chain: IERMVRTDSLWRGLAERRGWGQYLFKNKPPDGNAPPNSFYRALYPKIIQDIETIESNWRCGRHSLQRIHCRSETSKGVYCLQYDDQKIVSGLRDNTIAIWDKNTLECKRILTGHTGSVLCLQYDERVIITGSSDSTVRVWDVNTGEMLNTLIHHCEAVLHLRFNNGMMVTCSKDRSIAVWDMASPTDITLRRVLVGHRAAVNVVDFDDKYIVSASGDRTIKVWNTSTCEFVRTLNGHKRGIACLQYRDRLVVSGSSDNTIRLWDIECGACLRVLEGHEELVRCIRFDNKRIVSGAYDGKIKVWDLVAALDPRAPAGTLCLRTLVEHSGRVFRLQFDEFQIVSSSHDDTILIWDFLNDPAAQAEPPRSPSRTYTYISR
notes: domain: WD fragment (F-Box deleted E3RS); also called Flag-WD mutant WDK2; mutant WD
B3: IKK-phosphorylated IκBα (pIκBα) (other, UniProt P25963 1-317, looked up)
chain: MFQAAERPQEWAMEGPRDGLKKERLLDDRHDSGLDSMKDEEYEQMVKELQEIRLEPQEVPRGSEPWKQQLTEDGDSFLHLAIIHEEKALTMEVIRQVKGDLAFLNFQNNLQQTPLHLAVITNQPEIAEALLGAGCDPELRDFRGNTPLHLACEQGCLASVGVLTQSCTTPHLHSILKATNYNGHTCLHLASIHGYLGIVELLVSLGADVNAQEPCNGRTALHLAVDLQNPDLVSLLLKCGADVNRVTYQGYSPYQLTWGRPSTRIQQQLGQLTLENLQMLPESEDEESYDTESEFTEFTEDELPYDDCVFGGQRLTL
modifications: phosphorylated by IKK2 (sites not given); 35S-labelled in the in vitro assays
notes: in the other assays it was phosphorylated in vitro by IKK2
B4: non-phosphorylated IκBα (other, UniProt P25963 1-317, looked up)
chain: B3 chain
B5: Flag-HOS/β-TrCP2 (other, human, UniProt Q9UKB1 1-542, looked up, not shown: small tags and cut ends)
chain: MEPDSVIEDKTIELMCSVPRSLWLGCANLVESMCALSCLQSMPSVRCLQISNGTSSVIVSRKRPSEGNYQKEKDLCIKYFDQWSESDQVEFVEHLISRMCHYQHGHINSYLKPMLQRDFITALPEQGLDHIAENILSYLDARSLCAAELVCKEWQRVISEGMLWKKLIERMVRTDPLWKGLSERRGWDQYLFKNRPTDGPPNSFYRSLYPKIIQDIETIESNWRCGRHNLQRIQCRSENSKGVYCLQYDDEKIISGLRDNSIKIWDKTSLECLKVLTGHTGSVLCLQYDERVIVTGSSDSTVRVWDVNTGEVLNTLIHHNEAVLHLRFSNGLMVTCSKDRSIAVWDMASATDITLRRVLVGHRAAVNVVDFDDKYIVSASGDRTIKVWSTSTCEFVRTLNGHKRGIACLQYRDRLVVSGSSDNTIRLWDIECGACLRVLEGHEELVRCIRFDNKRIVSGAYDGKIKVWDLQAALDPRAPASTLCLRTLVEHSGRVFRLQFDEFQIISSSHDDTILIWDFLNVPPSAQNETRSPSRTYTYISR
notes: also called β-TrCP2/HOS
B6: Flag-F-Box (F-Box fragment of E3RS) (other, UniProt Q9Y297 1-228, looked up, not shown: small tags and cut ends)
chain: MDPAEAVLQEKALKFMCSMPRSLWLGCSSLADSMPSLRCLYNPGTGALTAFQNSSEREDCNNGEPPRKIIPEKNSLRQTYNSCARLCLNQETVCLASTAMKTENCVAKTKLANGTSSMIVPKQRKLSASYEKEKELCVKYFEQWSESDQVEFVEHLISQMCHYQHGHINSYLKPMLQRDFITALPARGLDHIAENILSYLDAKSLCAAELVCKEWYRVTSDGMLWKKL
notes: domain: F-Box fragment

Legend:
[1] = target: IKK-phosphorylated IκBα (pIκBα) (UniProt P25963); experiment: pIκBα binding after heat shock, data not shown
[2] = target: T1, hnRNP-U (endogenous protein of 293/293T cells) (UniProt Q00839-2 2-806, limits assumed); experiment: anti-Flag immunopurification from 293T cells, SDS-PAGE Coomassie
T1 construct: also called p120; 120 kD protein

[3] = target: T1, hnRNP-U (endogenous protein of 293/293T …); experiment: anti-Flag immunopurification, Flag-peptide elution, Coomassie
[4] = target: T1, hnRNP-U (endogenous protein of 293/293T …); experiment: pIκBα incubated with anti-hnRNP-U immunobeads carrying the hnRNP-U/E3RS complex, Western blot
[5] = target: B2; experiment: pull-down of 35S-labelled pIκBα on anti-Flag immunobeads, phosphorimaging
HA-hnRNP-U = target: T2, HA-hnRNP-U (UniProt Q00839-2 1-806, limits assumed); experiment: anti-p65 immunoprecipitation from 293T cells with MEKK and IKK2, anti-HA Western blot
T2 construct: not shown: HA tag

[6] = target: T1, hnRNP-U (endogenous protein of 293/293T …); experiment: IκBα incubated with anti-hnRNP-U immunobeads carrying the hnRNP-U/E3RS complex, Western blot
[7] = target: T1, hnRNP-U (endogenous protein of 293/293T …); experiment: anti-Flag immunoprecipitation from 293T cells, Western blot with monoclonal anti-hnRNP-U (also Coomassie, FIG. 2A lane 3)
[8] = target: T1, hnRNP-U (endogenous protein of 293/293T …); experiment: anti-Flag immunoprecipitation from 293T cells, Coomassie and Western blot

**Q.** How did the loss of pIκBα binding capacity after heat shock [1] turn out when “E3K2 (Flag-E3RS with the K2 residue Lys 326 mutated to Ala) (from UniProt Q9Y297 1-605)” was run?
**A.** The loss of pIκBα binding capacity after heat shock was 50 to 60%.

**Q.** Which “Coomassie staining ratio p120/E3RS” value [2] does the source give for B1 here?
**A.** The value was 1.5 ratio p120:E3RS.

**Q.** Does B2 bind [3]?
**A.** Result: no binding

**Q.** Does B3 bind [4]?
**A.** Result: no binding

**Q.** Does B3 bind [5]?
**A.** Result: no binding

**Q.** Does B3 bind (HA-hnRNP-U)?
**A.** Result: no binding

**Q.** Does B4 bind [6]?
**A.** Result: no binding

**Q.** Does B5 bind [7]?
**A.** Result: no binding

**Q.** Does B6 bind [8]?
**A.** Result: no binding
